Columns and labels:
[1] = molecular target: IGF-II receptor (human, in membrane extracts of postmortem frontal lobe tissue) (human) (UniProt P11717); assay: saturation binding of [125I]-IGF-II to pooled human frontal lobe extracts, Braak 4-5; one-site fit/Scatchard
[2] = molecular target: IGF-II receptor (human, in membrane extracts of postmortem frontal lobe tissue) (human) (UniProt P11717); assay: saturation binding of [125I]-IGF-II to pooled human frontal lobe extracts, Braak 2-3; one-site fit/Scatchard
[3] = molecular target: IGF-II receptor (human, in membrane extracts of postmortem frontal lobe tissue) (human) (UniProt P11717); assay: saturation binding of [125I]-IGF-II to pooled human frontal lobe extracts, Braak 6; one-site fit/Scatchard
[4] = molecular target: IGF-II receptor (human, in membrane extracts of postmortem frontal lobe tissue) (human) (UniProt P11717); assay: saturation binding of [125I]-IGF-II to pooled human frontal lobe extracts, Braak 0-1; one-site fit/Scatchard

Chain of IGF-II receptor (human, in membrane extracts of postmortem frontal lobe tissue) (human) (P11717 41-2491 limits assumed): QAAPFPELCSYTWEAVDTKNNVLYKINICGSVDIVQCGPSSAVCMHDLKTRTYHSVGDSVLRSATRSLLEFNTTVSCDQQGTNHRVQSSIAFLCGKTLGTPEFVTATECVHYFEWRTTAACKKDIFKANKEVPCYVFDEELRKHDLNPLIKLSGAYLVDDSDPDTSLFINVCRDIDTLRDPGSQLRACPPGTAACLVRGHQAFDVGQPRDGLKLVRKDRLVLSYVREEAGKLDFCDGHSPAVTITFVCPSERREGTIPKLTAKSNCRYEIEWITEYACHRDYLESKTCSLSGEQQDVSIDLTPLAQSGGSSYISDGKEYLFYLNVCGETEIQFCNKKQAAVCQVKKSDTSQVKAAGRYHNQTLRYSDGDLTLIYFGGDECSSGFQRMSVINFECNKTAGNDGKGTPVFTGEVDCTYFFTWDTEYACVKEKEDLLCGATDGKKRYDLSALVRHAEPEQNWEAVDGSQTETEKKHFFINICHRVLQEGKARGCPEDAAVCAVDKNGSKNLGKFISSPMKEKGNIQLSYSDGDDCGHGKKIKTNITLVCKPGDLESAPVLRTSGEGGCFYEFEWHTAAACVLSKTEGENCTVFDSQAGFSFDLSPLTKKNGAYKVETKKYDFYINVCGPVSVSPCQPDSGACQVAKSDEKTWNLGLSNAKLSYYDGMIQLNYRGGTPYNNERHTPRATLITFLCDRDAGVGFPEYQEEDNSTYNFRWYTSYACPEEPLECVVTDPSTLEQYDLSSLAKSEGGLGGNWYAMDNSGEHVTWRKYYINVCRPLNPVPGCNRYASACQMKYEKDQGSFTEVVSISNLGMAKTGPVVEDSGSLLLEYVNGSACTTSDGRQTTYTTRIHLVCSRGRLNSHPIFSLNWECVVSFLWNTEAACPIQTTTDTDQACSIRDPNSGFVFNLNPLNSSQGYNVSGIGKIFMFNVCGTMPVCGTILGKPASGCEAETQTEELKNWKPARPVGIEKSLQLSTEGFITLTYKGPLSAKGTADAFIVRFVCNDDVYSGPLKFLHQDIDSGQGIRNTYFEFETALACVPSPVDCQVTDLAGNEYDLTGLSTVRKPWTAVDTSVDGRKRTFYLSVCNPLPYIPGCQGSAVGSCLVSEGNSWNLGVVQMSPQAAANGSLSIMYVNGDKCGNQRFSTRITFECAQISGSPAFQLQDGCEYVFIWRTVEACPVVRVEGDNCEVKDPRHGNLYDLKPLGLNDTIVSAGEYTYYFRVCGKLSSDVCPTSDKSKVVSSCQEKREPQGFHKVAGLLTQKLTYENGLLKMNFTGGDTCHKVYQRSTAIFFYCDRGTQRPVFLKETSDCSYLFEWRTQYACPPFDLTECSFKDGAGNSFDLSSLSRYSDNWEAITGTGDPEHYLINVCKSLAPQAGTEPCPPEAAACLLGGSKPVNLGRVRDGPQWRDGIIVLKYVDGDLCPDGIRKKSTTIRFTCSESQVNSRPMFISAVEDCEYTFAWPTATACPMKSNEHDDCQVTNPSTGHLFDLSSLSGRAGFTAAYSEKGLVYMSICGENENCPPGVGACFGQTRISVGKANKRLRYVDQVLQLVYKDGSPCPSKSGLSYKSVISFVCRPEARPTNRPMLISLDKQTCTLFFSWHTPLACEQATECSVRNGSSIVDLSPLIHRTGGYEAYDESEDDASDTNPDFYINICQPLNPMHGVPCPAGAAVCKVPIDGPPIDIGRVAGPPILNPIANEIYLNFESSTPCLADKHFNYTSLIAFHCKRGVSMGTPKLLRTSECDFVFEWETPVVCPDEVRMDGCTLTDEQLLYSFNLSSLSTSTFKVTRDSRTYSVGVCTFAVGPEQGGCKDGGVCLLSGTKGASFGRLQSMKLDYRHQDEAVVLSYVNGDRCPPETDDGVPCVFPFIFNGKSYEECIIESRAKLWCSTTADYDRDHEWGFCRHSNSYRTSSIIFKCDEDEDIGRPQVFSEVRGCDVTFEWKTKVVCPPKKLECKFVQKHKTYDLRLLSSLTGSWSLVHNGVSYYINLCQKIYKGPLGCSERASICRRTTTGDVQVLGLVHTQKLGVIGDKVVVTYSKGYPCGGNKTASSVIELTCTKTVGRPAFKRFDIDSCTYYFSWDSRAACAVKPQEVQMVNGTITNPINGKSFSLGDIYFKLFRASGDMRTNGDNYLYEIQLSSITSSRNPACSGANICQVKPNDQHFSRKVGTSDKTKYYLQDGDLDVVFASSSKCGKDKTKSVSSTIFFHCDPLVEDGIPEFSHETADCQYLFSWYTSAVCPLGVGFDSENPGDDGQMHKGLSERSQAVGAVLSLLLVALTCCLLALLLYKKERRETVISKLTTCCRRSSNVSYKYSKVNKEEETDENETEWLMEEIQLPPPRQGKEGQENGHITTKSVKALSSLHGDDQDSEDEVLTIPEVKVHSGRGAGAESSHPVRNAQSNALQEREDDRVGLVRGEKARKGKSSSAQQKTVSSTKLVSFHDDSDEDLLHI

In the case of [125I]-labeled IGF-II (ligand), the BMAX (fmol/mg protein) [1] is reported as 8.14, the BMAX (fmol/mg protein) [2] is reported as 12.5 and the BMAX (fmol/mg protein) [3] is reported as 4.71. It also gave a BMAX (fmol/mg protein) [4] of 16.8.

Source: EP1817050B1
